Data: the Immune Epitope Database (IEDB)
Values belong to the sequence of their own block, whether it stands above or below them.

What was measured:
Settings in all cases: source organism: Homo sapiens
HLA-A*03:01 [1] = test: IEDB peptide-MHC binding, purified MHC/competitive/radioactivity; filed as Kd, often an IC50 or EC50 that approximates it; ≥ and ≤ were set here for values at or beyond the usual limits of such assays
HLA-A*11:01 = test: as above
HLA-A*02:01 [2] = test: as above
HLA-A*01:01 = test: as above
HLA-A*02:01 [3] = test: IEDB peptide-MHC binding, purified MHC/competitive/radioactivity; ≥ and ≤ were set here for values at or beyond the usual limits of such assays
HLA-A*03:01 [4] = test: as above
HLA-A*24:02 = test: IEDB peptide-MHC binding, purified MHC/competitive/radioactivity; filed as Kd, often an IC50 or EC50 that approximates it; ≥ and ≤ were set here for values at or beyond the usual limits of such assays

Kd (HLA-A*03:01 [1]): 31.4 nM
Kd (HLA-A*11:01): 20.3 nM
Sequence: ADLVGFLLLK

Kd (HLA-A*03:01 [1]): 35.5 nM
Kd (HLA-A*11:01): 16.4 nM
Sequence: ALAETSYVK

Kd (HLA-A*02:01 [2]): 333 nM
Sequence: ALGLVCVQA

Kd (HLA-A*02:01 [2]): 238 nM
Sequence: ALREEEEGV

Kd (HLA-A*03:01 [1]): 1590 nM
Sequence: DLVGFLLLKY

Kd (HLA-A*01:01): 44.6 nM
Sequence: ETSYVKVLEY

Kd (HLA-A*03:01 [1]): 1180 nM
Sequence: FLIIVLVMIA

Kd (HLA-A*02:01 [2]): 119 nM
Sequence: FLWGPRALA

IC50 (HLA-A*02:01 [3]): 980 nM
Sequence: GLLGDNQIM

Kd (HLA-A*02:01 [2]): 2170 nM
Sequence: GLVCVQAAT

IC50 (HLA-A*03:01 [4]): 786 nM
Sequence: HSAYGEPRK

IC50 (HLA-A*02:01 [3]): 649 nM
Kd (HLA-A*24:02): 3.8 nM
Sequence: IMPKTGFLI

Kd (HLA-A*02:01 [2]): 1430 nM
Kd (HLA-A*24:02): 34.3 nM
Sequence: IMPKTGFLII

Kd (HLA-A*02:01 [2]): 4170 nM
Sequence: KTGFLIIVLV

IC50 (HLA-A*02:01 [3]): 575 nM
Sequence: KVADLVGFL

Kd (HLA-A*02:01 [2]): 89.3 nM
Sequence: KVADLVGFLL

Kd (HLA-A*03:01 [1]): 1000 nM
Sequence: LFRAVITKK

Kd (HLA-A*03:01 [1]): ≥ 5000 nM
Sequence: LIIVLVMIA

IC50 (HLA-A*03:01 [4]): 550 nM
Sequence: LLGDNQIMP

Kd (HLA-A*11:01): 36.9 nM
Sequence: LLTQDLVQEK

Kd (HLA-A*11:01): 492 nM
Sequence: LSVMEVYDGR

Kd (HLA-A*11:01): 15.5 nM
Sequence: LTQDLVQEK

Kd (HLA-A*01:01): 20.8 nM
Sequence: LTQDLVQEKY

Kd (HLA-A*03:01 [1]): 196 nM
Sequence: LVGFLLLKY

Kd (HLA-A*03:01 [1]): 3240 nM
Sequence: LVGFLLLKYR

Kd (HLA-A*02:01 [2]): 156 nM
Sequence: LVLGTLEEV

Kd (HLA-A*11:01): 111 nM
Sequence: LVQEKYLEY

Kd (HLA-A*01:01): 2270 nM
Sequence: MLESVIKNY

Kd (HLA-A*03:01 [1]): 78.6 nM
Kd (HLA-A*11:01): 218 nM
Sequence: MLESVIKNYK

Kd (HLA-A*03:01 [1]): 3550 nM
Sequence: MSLEQRSLH

Kd (HLA-A*24:02): 2.5 nM
Sequence: NYKHCFPEI

IC50 (HLA-A*02:01 [3]): 500 nM
Sequence: RALAETSYV

Kd (HLA-A*03:01 [1]): 61.1 nM
Kd (HLA-A*11:01): 24.6 nM
Sequence: RALAETSYVK

Kd (HLA-A*03:01 [1]): 25.6 nM
Sequence: RVRFFFPSLR

IC50 (HLA-A*03:01 [4]): 733 nM
Kd (HLA-A*11:01): 393 nM
Sequence: SLEQRSLHCK

Kd (HLA-A*03:01 [1]): 9.2 nM
Kd (HLA-A*11:01): 6 nM
Sequence: SLFRAVITKK

Kd (HLA-A*02:01 [2]): 385 nM
Sequence: SLHCKPEEA

Kd (HLA-A*02:01 [2]): 2500 nM
Sequence: SLQLVFGIDV

Kd (HLA-A*03:01 [1]): 1180 nM
Kd (HLA-A*11:01): 4.5 nM
Sequence: SVMEVYDGR

Kd (HLA-A*24:02): 333 nM
Sequence: SYVKVLEYVI

Kd (HLA-A*11:01): 393 nM
Sequence: TSCILESLFR

IC50 (HLA-A*03:01 [4]): 688 nM
Kd (HLA-A*11:01): 5.9 nM
Sequence: TTINFTRQR

Kd (HLA-A*02:01 [2]): 2500 nM
Sequence: VADLVGFLL

Kd (HLA-A*03:01 [1]): 2500 nM
Sequence: VGFLLLKYR

Kd (HLA-A*02:01 [2]): 139 nM
Sequence: VMIAMEGGHA

Kd (HLA-A*02:01 [2]): 357 nM
Sequence: YVIKVSARV

IC50 (HLA-A*03:01 [4]): 579 nM
Sequence: YVIKVSARVR

Kd (HLA-A*03:01 [1]): 3790 nM
Sequence: YVKVLEYVIK

Kd (HLA-A*02:01 [2]): 2170 nM
Sequence: YVLVTCLGL
